The values that follow are results of earlier work, collected in patent publication US12305171B2, “Compositions and methods for treating cancer” (bioAffinity Technologies, Inc., priority 2018, dated 2025).

The conditions of the data set: cited from earlier work.

Read-outs that look alike come from different tables or passages of the source.

B1: TCN2-Cbl: complex of transcobalamin 2 (TCN2) with cobalamin (vitamin B12) (protein, UniProt P20062 19-427, looked up)
Transcobalamin-2: EMCEIPEMDSHLVEKLGQHLLPWMDRLSLEHLNPSIYVGLRLSSLQAGTKEDLYLHSLKLGYQQCLLGSAFSEDDGDCQGKPSMGQLALYLLALRANCEFVRGHKGDRLVSQLKWFLEDEKRAIGHDHKGHPHTSYYQYGLGILALCLHQKRVHDSVVDKLLYAVEPFHQGHHSVDTAAMAGLAFTCLKRSNFNPGRRQRITMAIRTVREEILKAQTPEGHFGNVYSTPLALQFLMTSPMRGAELGTACLKARVALLASLQDGAFQNALMISQLLPVLNHKTYIDLIFPDCLAPRVMLEPAAETIPQTQEIISVTLQVLSLLPPYRQSISVLAGSTVEDVLKKAHELGGFTYETQASLSGPYLTSVMGKAAGEREFWQLLRDPNTPLLQGIADYRPKDGETIELRLVSW
modifications: complexed with cobalamin
In the case of B1, the plasma half-life (in vivo) is 1 to 15 h.

B2: TCN1: plasma glycoprotein chaperone of cobalamin, sialylated and desialylated forms (protein, UniProt P20061 24-433, looked up)
Transcobalamin-1: EICEVSEENYIRLKPLLNTMIQSNYNRGTSAVNVVLSLKLVGIQIQTLMQKMIQQIKYNVKSRLSDVSSGELALIILALGVCRNAEENLIYDYHLIDKLENKFQAEIENMEAHNGTPLTNYYQLSLDVLALCLFNGNYSTAEVVNHFTPENKNYYFGSQFSVDTGAMAVLALTCVKKSLINGQIKADEGSLKNISIYTKSLVEKILSEKKENGLIGNTFSTGEAMQALFVSSDYYNENDWNCQQTLNTVLTEISQGAFSNPNAAAQVLPALMGKTFLDINKDSSCVSASGNFNISADEPITVTPPDSQSYISVNYSVRINETYFTNVTVLNGSVFLSVMEKAQKMNDTIFGFTMEERSWGPYITCIQGLCANNNDRTYWELLSGGEPLSQGAGSYVVRNGENLEVRWSKY
Take B2: the plasma half-life entry is “a few minutes” (desialylated, less abundant form) and “about 10 days” (sialylated, most abundant form).
